Test results taken from patent US20190016825A1 (JIANGSU HENGRUI MEDICINE, published 2019).

Biological target: T1, PCSK9-His6 (human, UniProt Q8NBP7 31-692, limits assumed)
T1 construct: also called human PCSK9 with His tag; huPCSK9
Experiment: BIAcore, antibody captured by human Fab capture molecule on CM5 chip, PCSK9-His6 in flow
Text: According to the method described in the Human Fab Capture Kit (Cat. #28-9583-25, GE), the human Fab capture molecule was covalently linked to the CM5 biochip (Cat. # BR-1000-12, GE) so that the antibodies to be tested were affinity captured. Then, human PCSK9 antigen (human PCSK9 with His tag: PCSK9-His6, SEQ ID NO: 1) flowed through the surface of the biochip, and the reaction signal was detected in real time using a Biacore instrument to obtain the association and dissociation curves. Finally, the affinity values were obtained by fitting and are shown at table 9 below. After each cycle of dissociation was finished in the experiment, the biochip was washed and regenerated with regeneration solution in Human Fab Capture kit (GE).

Kd: 0.491 nM
B1: h001-4-YTE (antibody, human IgG1, kappa)
heavy: QVQLVQSGAEVKKPGASVKVSCKASGYTFTDYWMHWVRQAPGQGLEWMGYINPSSGFTKYHQNFKDRVTMTRDTSISTAYMELSRLRSDDTAVYYCARQYDYDEDWYFDVWGQGTTVTVSSASTKGPSVFPLAPSSKSTSGGTAALGCLVKDYFPEPVTVSWNSGALTSGVHTFPAVLQSSGLYSLSSVVTVPSSSLGTQTYICNVNHKPSNTKVDKKVEPKSCDKTHTCPPCPAPELLGGPSVFLFPPKPKDTLYITREPEVTCVVVDVSHEDPEVKFNWYVDGVEVHNAKTKPREEQYNSTYRVVSVLTVLHQDWLNGKEYKCKVSNKALPAPIEKTISKAKGQPREPQVYTLPPSRDELTKNQVSLTCLVKGFYPSDIAVEWESNGQPENNYKTTPPVLDSDGSFFLYSKLTVDKSRWQQGNVFSCSVMHEALHNHYTQKSLSLSPGK
light: DIVMSQSPSSLSASVGDRVTITCKSSQSLLNSRTRKNFLAWYQQKPGKSPKLLIYWASTRESGVPDRFSGSGSGTDFTLTISSLQPEDFATYYCKQSFNLFTFGQGTKLEIKRTVAAPSVFIFPPSDEQLKSGTASVVCLLNNFYPREAKVQWKVDNALQSGNSQESVTEQDSKDSTYSLSSTLTLSKADYEKHKVYACEVTHQGLSSPVTKSFNRGEC
notes: human kappa light chain; also called h001-4-IgG1-YTE
